Laboratory results reported in the supplement of paper PMC10567573.

B1: PHTF1 (parent)
chain: SRHLNSQVKKTTTRWCHIVRDSDS

Variants of: B1
Test: protein stability index of a GFP-peptide fusion (GPS, HEK-293T) (PSI 1-6); higher = more stable
Conditions: c terminus: a fixed tail appended
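Note: lentivirally expressed fusions sorted by FACS into six bins by GFP to DsRed ratio, PSI derived from sequencing read proportions per bin multiplied by bin number.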

Compared with SRHLNSQVKKTTTRWCHIVRDPDS [S22P], SRHLNSQVKKTTTRWCHIVRDADS [S22A] is higher in protein stability index: 1.77 for the first, 1.82 for the second.

Compared with SRHLNSQVKKTTTRWCHIVRDLDS [S22L], SRHLNSQVKKTTTRWCHIVRDIDS [S22I] is lower in protein stability index: 1.78 for the first, 1.45 for the second.

Going from SRHLNSQVKKTTTRWCHIVRDNDS [S22N] to SRHLNSQVKKTTTRWCHIVRDKDS [S22K], the protein stability index rises from 1.48 to 2.84.

First: SRHLNSQVKKTTTRWCHIVFDSDS [R20F]
Second: SRHLNSQVKKTTTRWCHIVPDSDS [R20P]
The protein stability index of the first is higher: 2.37 for the first, 2.3 for the second.

Compared with SRHLNSQVKKTTTRWCHIVEDSDS [R20E], SRHLNSQVKKTTTRWCHIVGDSDS [R20G] is lower in protein stability index: 2.75 for the first, 1.76 for the second.

Going from SRHLNSQVKKTTTRWCHIVNDSDS [R20N] to SRHLNSQVKKTTTRWCHIVQDSDS [R20Q], the protein stability index rises from 1.45 to 2.09.

First: SRHLNSQVKKTTTRWCHIVKDSDS [R20K]
Second: SRHLNSQVKKTTTRWCHIVYDSDS [R20Y]
The protein stability index of the first is lower: 1.25 for the first, 2.4 for the second.

First: SRHLNSQVKKTTTRWCHIVWDSDS [R20W]
Second: SRHLNSQVKKTTTRWCHIVHDSDS [R20H]
The protein stability index of the first is lower: 1.57 for the first, 2.29 for the second.

Compared with SRHLNSQVKSTTTRWCHIVRDSDS [K10S], SRHLNSQVKETTTRWCHIVRDSDS [K10E] is lower in protein stability index: 2.87 for the first, 2.63 for the second.

Compared with SRHLNSQVKWTTTRWCHIVRDSDS [K10W], SRHLNSQVKQTTTRWCHIVRDSDS [K10Q] is higher in protein stability index: 1.97 for the first, 2.19 for the second.

Compared with SRHLNSQVKATTTRWCHIVRDSDS [K10A], SRHLNSQVKGTTTRWCHIVRDSDS [K10G] is lower in protein stability index: 2.76 for the first, 2.55 for the second.

First: SRHLNSQVKDTTTRWCHIVRDSDS [K10D]
Second: SRHLNSQVKTTTTRWCHIVRDSDS [K10T]
The protein stability index of the first is higher: 2.56 for the first, 1.98 for the second.

Compared with SRHLNSQVKMTTTRWCHIVRDSDS [K10M], SRHLNSQVKKTTTRWCHIVRDSTS [D23T] is lower in protein stability index: 2.37 for the first, 1.78 for the second.

Going from SRHLNSQVKKTTTRWCHIVRDSMS [D23M] to SRHLNSQVKKTTTRWCHIVRDSRS [D23R], the protein stability index rises from 2.19 to 2.8.

Going from SRHLNSQVKKTTTRWCHIVRDSLS [D23L] to SRHLNSQVKKTTTRWCHIVRDSHS [D23H], the protein stability index rises from 1.75 to 2.34.

First: SRHLNHQVKKTTTRWCHIVRDSDS [S6H]
Second: SRHLNFQVKKTTTRWCHIVRDSDS [S6F]
The protein stability index of the first is higher: 2.29 for the first, 1.45 for the second.

First: SRHLNLQVKKTTTRWCHIVRDSDS [S6L]
Second: SRHLNMQVKKTTTRWCHIVRDSDS [S6M]
The protein stability index of the first is lower: 1.68 for the first, 1.93 for the second.

Going from SRHLNVQVKKTTTRWCHIVRDSDS [S6V] to SRHLNEQVKKTTTRWCHIVRDSDS [S6E], the protein stability index rises from 1.94 to 2.31.

First: SRHLNRQVKKTTTRWCHIVRDSDS [S6R]
Second: SRHLNKQVKKTTTRWCHIVRDSDS [S6K]
The protein stability index of the first is lower: 2.17 for the first, 2.38 for the second.

Going from SRHLNSQVKKTATRWCHIVRDSDS [T12A] to SRHLNSQVKKTRTRWCHIVRDSDS [T12R], the protein stability index falls from 2.1 to 2.09.

First: SRHLNSQVKKTDTRWCHIVRDSDS [T12D]
Second: SRHLNSQVKKTYTRWCHIVRDSDS [T12Y]
The protein stability index of the first is higher: 2.91 for the first, 1.5 for the second.

Compared with SRHLNSQVKKTGTRWCHIVRDSDS [T12G], SRHLNSQVKKTETRWCHIVRDSDS [T12E] is higher in protein stability index: 1.64 for the first, 2.68 for the second.

Compared with SRHLNSQVKKTLTRWCHIVRDSDS [T12L], SRHLNSQVKKTKTRWCHIVRDSDS [T12K] is higher in protein stability index: 1.53 for the first, 1.82 for the second.

First: SRHANSQVKKTTTRWCHIVRDSDS [L4A]
Second: SRHENSQVKKTTTRWCHIVRDSDS [L4E]
The protein stability index of the first is higher: 2.58 for the first, 2.56 for the second.

Compared with SRHKNSQVKKTTTRWCHIVRDSDS [L4K], SRHINSQVKKTTTRWCHIVRDSDS [L4I] is higher in protein stability index: 2.56 for the first, 2.75 for the second.

First: SRHTNSQVKKTTTRWCHIVRDSDS [L4T]
Second: SRHMNSQVKKTTTRWCHIVRDSDS [L4M]
The protein stability index of the first is higher: 2.06 for the first, 1.76 for the second.

Going from SRHQNSQVKKTTTRWCHIVRDSDS [L4Q] to SRHDNSQVKKTTTRWCHIVRDSDS [L4D], the protein stability index falls from 2.12 to 1.99.

Compared with SRHYNSQVKKTTTRWCHIVRDSDS [L4Y], SRHPNSQVKKTTTRWCHIVRDSDS [L4P] is higher in protein stability index: 1.76 for the first, 2.44 for the second.

First: SRHGNSQVKKTTTRWCHIVRDSDS [L4G]
Second: SRHLNSQVKKVTTRWCHIVRDSDS [T11V]
The protein stability index of the first is higher: 1.8 for the first, 1.13 for the second.

First: SRHLNSQVKKLTTRWCHIVRDSDS [T11L]
Second: SRHLNSQVKKQTTRWCHIVRDSDS [T11Q]
The protein stability index of the first is lower: 1.58 for the first, 2.43 for the second.

First: SRHLNSQVKKHTTRWCHIVRDSDS [T11H]
Second: SRHLNSQVKKFTTRWCHIVRDSDS [T11F]
The protein stability index of the first is higher: 2.95 for the first, 1.94 for the second.

Compared with SRHLNSQVKKWTTRWCHIVRDSDS [T11W], SRHLNSQVKKTTTGWCHIVRDSDS [R14G] is higher in protein stability index: 2.02 for the first, 2.57 for the second.

Going from SRHLNSQVKKTTTPWCHIVRDSDS [R14P] to SRHLNSQVKKTTTTWCHIVRDSDS [R14T], the protein stability index falls from 2 to 1.71.

First: SRHLNSQVKKTTTKWCHIVRDSDS [R14K]
Second: SRHLNSQVKKTTTMWCHIVRDSDS [R14M]
The protein stability index of the first is higher: 2.3 for the first, 1.6 for the second.

First: SRHLNSQVKKTTTWWCHIVRDSDS [R14W]
Second: SRHLNSQVKKTTTVWCHIVRDSDS [R14V]
The protein stability index of the first is lower: 1.65 for the first, 3.08 for the second.

Going from SRHLNSQVKKTTTHWCHIVRDSDS [R14H] to SRHLNSQVKKTTTCWCHIVRDSDS [R14C], the protein stability index falls from 2.17 to 1.87.

First: SRHLNSQVKKTTTSWCHIVRDSDS [R14S]
Second: SRHLNSQDKKTTTRWCHIVRDSDS [V8D]
The protein stability index of the first is lower: 1.91 for the first, 2.06 for the second.

Compared with SRHLNSQSKKTTTRWCHIVRDSDS [V8S], SRHLNSQEKKTTTRWCHIVRDSDS [V8E] is higher in protein stability index: 2.61 for the first, 2.79 for the second.

Going from SRHLNSQFKKTTTRWCHIVRDSDS [V8F] to SRHLNSQQKKTTTRWCHIVRDSDS [V8Q], the protein stability index falls from 2.57 to 1.98.

First: SRHLNSQRKKTTTRWCHIVRDSDS [V8R]
Second: SRHLNSQAKKTTTRWCHIVRDSDS [V8A]
The protein stability index of the first is lower: 1.78 for the first, 2.26 for the second.

Compared with SRHLNSQVKKTTTRLCHIVRDSDS [W15L], SRHLNSQVKKTTTRKCHIVRDSDS [W15K] is higher in protein stability index: 2.77 for the first, 3.78 for the second.

Compared with SRHLNSQVKKTTTRMCHIVRDSDS [W15M], SRHLNSQVKKTTTRICHIVRDSDS [W15I] is higher in protein stability index: 3.22 for the first, 3.36 for the second.

Compared with SRHLNSQVKKTTTRCCHIVRDSDS [W15C], SRHLNSQVKKTTTRPCHIVRDSDS [W15P] is higher in protein stability index: 2.74 for the first, 3.86 for the second.

First: SRHLNSQVKKTTTRDCHIVRDSDS [W15D]
Second: SRHLNSQVKKTTTRSCHIVRDSDS [W15S]
The protein stability index of the first is higher: 4.57 for the first, 3.84 for the second.

First: SRHLNSQVKKTTFRWCHIVRDSDS [T13F]
Second: SRHLNSQVKKTTCRWCHIVRDSDS [T13C]
The protein stability index of the first is lower: 1.81 for the first, 2.73 for the second.

First: SRHLNSQVKKTTNRWCHIVRDSDS [T13N]
Second: SRHLNSQVKKTTMRWCHIVRDSDS [T13M]
The protein stability index of the first is lower: 1.91 for the first, 2.1 for the second.

First: SRHLNSQVKKTTIRWCHIVRDSDS [T13I]
Second: SRHLNSWVKKTTTRWCHIVRDSDS [Q7W]
The protein stability index of the first is lower: 1.41 for the first, 2.84 for the second.
